From patent publication US20240336686A1 (ELPISCIENCE SUZHOU BIOPHARMA, published 2024)

Tests used:
[1] = molecular target: T1, mFc tagged human SIRPα v1 ECD recombinant protein (human, UniProt P78324 31-373); test: competitive ELISA; row antibody in excess in solution, coated mAb 025c
T1 construct: extracellular domain; not shown: mouse Fc tag
Procedure: (§1) Competitive ELISA assay was used for epitope binning of purified chimeric antibodies. Briefly excessive competitor antibody and mFc tagged human SIRPα v1 ECD recombinant protein were co-incubated with ELISA microplate coated antibody. After washing, HRP labeled anti-mouse Fc 2nd antibody (Sigma) was added and incubated at 37° C. for 1 hour. Then, 100 μl/well of TMB solution (Biotechnology) was added. After incubation for 15 minutes at room temperature, the reaction was stopped by the addition of 50 μl of 1N HCl. OD 450 nm was read. Competition ratio was calculated. The antibodies that can compete each other for binding to SIRPα may have related binding epitopes.

[2] = molecular target: T1, mFc tagged human SIRPα v1 ECD …; test: competitive ELISA; row antibody in excess in solution, coated mAb 042c
Procedure: as §1

[3] = molecular target: T1, mFc tagged human SIRPα v1 ECD …; test: competitive ELISA; row antibody in excess in solution, coated mAb hu1H9G4
Procedure: as §1

human PDL1 on cells [4] = molecular target: T2, human PDL1 on cells (human, UniProt Q9NZQ7 19-290); test: FACS, Raji cells overexpressing human PDL1, anti-human Fc-PE, MFI
T2 construct: whole, on cells; also called Raji/hPDL1; CHO cells that expressed PDL1
Procedure: Approximately 100,000 Raji cells overexpressing human PDL1 were washed with wash buffer and incubated with 100 ul serial dilution of PDL1/SIRPα bispecific protein for 30 minutes on ice. Cells were then washed twice with wash buffer and incubated with 100 ul of anti-human Fc-PE for 30 minutes on ice. Cells were then washed twice with wash buffer and analyzed on a FACS Canto II analyzer (BD Biosciences). […] The bispecific antibodies ES019-025, ES019-026 bound Raji/hPDL1 similar to anti-PDL1 monoclonal antibody C71 whereas ES019-020, ES019-024 bound Raji/hPDL1 to a lesser extent relative to anti-PDL1, C71.

[5] = molecular target: human PDL1 protein (Octet assay) (human, UniProt Q9NZQ7 19-238); test: Octet; antibody on sensor, PDL1 protein in solution
Procedure: The Anti-PDL1/SIRPα bispecific protein were characterized for binding affinity against human PDL1 using Octet assay (ForeBio) according to manufacturer's manual, separately. Briefly, the antibodies were coupled on sensors and then the sensors were dipped into PDL1 protein gradients (start at 200 nM, with 2-fold dilution and totally 8 doses). Their binding responses were measured in real-time and results were fit globally.

human PDL1 on cells [6] = molecular target: T2, human PDL1 on cells; test: cell-based or functional assay
[7] = molecular target: T3, human SIRPα v1 on CHOK1 cells (human, UniProt P78324 31-504); test: FACS, CHOK1 cells stably expressing human SIRPα v1
T3 construct: whole, on cells; also called CHOK1-hSIRPα v1; cell surface human SIRPα v1
Text: (§2) Binding activity of the purified chimeric antibodies against human SIRPα variants was detected by FACS assay using CHOK1 cells or 293F cells stably expressing human SIRPα v1 and CHOK1 cells stably expressing human SIRPα v2. […] EC₅₀ and top signal calculated using GraphPad Prism9.0.

[8] = molecular target: T4, human SIRPα v2 on CHOK1 cells (human, UniProt P78324 31-504); test: FACS, CHOK1 cells stably expressing human SIRPα v2
T4 construct: whole, on cells; also called CHOK1-hSIRPα v2; cell surface human SIRPα v2
Text: as §2

[9] = molecular target: Full length human SIRPα v1 with beta-gal fragment (ED) at its C-terminal, in K562 cells (human, UniProt P78324 31-504); test: cell-based or functional assay
[10] = molecular target: T5, human SIRPα v2 ECD recombinant protein (human); test: competitive ELISA, plate-coated human SIRPα v2 ECD; blocked ligand: mFc tagged human CD47 ECD
T5 construct: extracellular domain; Coated on the ELISA plate
Procedure: (§3) Competitive ELISA assay was used to determine whether the purified chimeric antibodies can block CD47 and SIRPα interaction. Briefly, antibody and mFc tagged human CD47 ECD recombinant protein were co-incubated with ELISA microplate coated human SIRPα v1 ECD or human SIRPα v2 ECD recombinant protein. The concentration of soluble ECD of CD47 is 25 nM, and the concentration of soluble ECD of SIRPα is 20 nM. After washing, HRP labeled anti-mouse Fc 2nd antibody (Sigma) was added and incubated at 37° C. for 1 hour. Then, 100 μl/well of TMB solution (Biotechnology) was added. After incubation for 15 minutes at room temperature, the reaction was stopped by the addition of 50 μl of 1N HCl. OD 450 nm was read. Blocking ratio was determined by blockade of human SIRPα ECD recombinant protein binding to ELISA microplate coated human CD47 ECD recombinant protein. All antibodies as tested can block interaction between human CD47 and different human SIRPα variants.

[11] = molecular target: T6, human SIRPα v1 ECD recombinant protein (human, UniProt P78324 31-373); test: competitive ELISA, plate-coated human SIRPα v1 ECD; blocked ligand: mFc tagged human CD47 ECD
T6 construct: extracellular domain; Coated on the ELISA plate
Procedure: as §3

[12] = molecular target: T6, human SIRPα v1 ECD recombinant protein; test: as above; remark: listed apart in the source
Procedure: as §3, with “ECD” for “ECD or human SIRPα v2 ECD”, “protein.” for “protein. The concentration of soluble ECD of CD47 is 25 nM, and the concentration of soluble ECD of SIRPα is 20 nM.”, “protein.” for “protein. All antibodies as tested can block interaction between human CD47 and different human SIRPα variants.”

T4 sequence (P78324 other isoform, or with tags, fused parts or gaps limits assumed): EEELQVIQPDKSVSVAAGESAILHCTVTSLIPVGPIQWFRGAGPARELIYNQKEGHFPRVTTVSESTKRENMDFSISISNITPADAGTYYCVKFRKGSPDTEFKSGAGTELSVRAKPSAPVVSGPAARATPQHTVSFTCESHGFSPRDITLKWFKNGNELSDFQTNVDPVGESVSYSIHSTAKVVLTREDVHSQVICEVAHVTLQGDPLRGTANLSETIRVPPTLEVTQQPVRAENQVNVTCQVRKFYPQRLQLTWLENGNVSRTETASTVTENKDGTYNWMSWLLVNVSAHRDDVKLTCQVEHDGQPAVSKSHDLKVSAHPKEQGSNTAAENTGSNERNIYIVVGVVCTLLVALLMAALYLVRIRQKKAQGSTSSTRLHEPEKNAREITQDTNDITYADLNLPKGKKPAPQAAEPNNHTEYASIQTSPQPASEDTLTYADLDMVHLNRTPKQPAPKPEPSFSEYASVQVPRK
Sequence of human PDL1 protein (Octet assay) (Q9NZQ7 19-238 limits assumed): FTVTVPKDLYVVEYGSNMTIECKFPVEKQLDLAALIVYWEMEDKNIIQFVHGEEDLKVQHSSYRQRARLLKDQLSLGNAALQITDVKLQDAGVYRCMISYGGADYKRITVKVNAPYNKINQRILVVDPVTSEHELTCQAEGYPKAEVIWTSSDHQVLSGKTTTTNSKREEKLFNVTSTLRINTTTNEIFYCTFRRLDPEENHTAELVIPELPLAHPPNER
T1 sequence (P78324 31-373): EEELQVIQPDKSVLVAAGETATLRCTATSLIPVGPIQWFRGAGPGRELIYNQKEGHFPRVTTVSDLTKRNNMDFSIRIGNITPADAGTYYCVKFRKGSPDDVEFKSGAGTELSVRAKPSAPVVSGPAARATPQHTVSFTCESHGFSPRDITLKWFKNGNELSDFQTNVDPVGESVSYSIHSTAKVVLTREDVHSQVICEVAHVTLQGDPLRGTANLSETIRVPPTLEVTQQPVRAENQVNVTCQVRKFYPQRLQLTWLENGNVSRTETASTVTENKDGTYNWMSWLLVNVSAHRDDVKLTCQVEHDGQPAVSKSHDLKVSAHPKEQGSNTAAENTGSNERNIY
T6 sequence (P78324 31-373): as above
T2 sequence (Q9NZQ7 19-290): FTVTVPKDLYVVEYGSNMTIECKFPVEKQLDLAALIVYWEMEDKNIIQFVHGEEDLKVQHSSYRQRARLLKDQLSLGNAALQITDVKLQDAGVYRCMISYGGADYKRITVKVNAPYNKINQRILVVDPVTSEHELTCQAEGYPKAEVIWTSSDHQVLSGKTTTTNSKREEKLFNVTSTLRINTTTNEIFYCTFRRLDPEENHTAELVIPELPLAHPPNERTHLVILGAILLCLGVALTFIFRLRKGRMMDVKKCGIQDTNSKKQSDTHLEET
T3 sequence (P78324 31-504): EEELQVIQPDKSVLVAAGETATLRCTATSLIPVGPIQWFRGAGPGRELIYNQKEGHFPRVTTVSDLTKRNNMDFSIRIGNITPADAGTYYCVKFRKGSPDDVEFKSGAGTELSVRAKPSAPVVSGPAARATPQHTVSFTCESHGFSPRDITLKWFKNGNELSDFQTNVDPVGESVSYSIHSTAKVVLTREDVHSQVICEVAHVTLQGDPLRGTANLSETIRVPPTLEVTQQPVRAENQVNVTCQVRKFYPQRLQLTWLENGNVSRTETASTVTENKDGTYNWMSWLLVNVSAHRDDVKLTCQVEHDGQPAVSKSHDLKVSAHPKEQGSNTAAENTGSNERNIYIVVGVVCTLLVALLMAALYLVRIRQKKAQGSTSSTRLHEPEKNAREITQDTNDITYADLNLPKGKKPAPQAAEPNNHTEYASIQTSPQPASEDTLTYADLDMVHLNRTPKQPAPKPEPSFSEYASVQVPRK
Sequence of Full length human SIRPα v1 with beta-gal fragment (ED) at its C-terminal, in K562 cells (P78324 31-504): as above

| Binder | % Competition [1] | % Competition [2] | % Competition [3] | EC50 (read off the curve) (human PDL1 on cells [4]) | Kd [5] | koff [5] | kon [5] | EC50 (read off the curve) (human PDL1 on cells [6]) | also measured |
| --- | --- | --- | --- | --- | --- | --- | --- | --- | --- |
| Reference anti-SIRPα antibody hu1H9G4 (antibody, human IgG4, V domains shown) VH: QVQLVQSGAEVKKPGASVKVSCKASGYTFTSYWITWVKQAPGQGLEWIGDIYPGSGSTNHIEKFKSKATLTVDTSISTAYMELSRLRSDDTAVYYCATGYGSSYGYFDYWGQGTLVTVSS VL: DIQMTQSPSSLSASVGDRVTITCRASENIYSYLAWYQQKPGKAPKLLIYTAKTLAEGVPSRFSGSGSGTDFTLTISSLQPEDFATYYCQHQYGPPFTFGQGTKLELK | 14.5% | 82.6% | 90.5% |  |  |  |  |  |  |
| Anti-PDL1 antibody C71 (antibody, V domains shown, Heavy chain antibody (single domain variable region); also called Anti-PDL1, C71) VH: EVQVVESGGGLVQSGGSLKLSCAGSGFTESAGFMVWHRQVPGKERELVALIATPSGSTNYADSVKGRFTISRDNGKNTVYLQMNSLKPEDTAVYYCNIRGYWGQGTLVTVSS |  |  |  | ~0.2 nM | 5.31 nM | 0.00501 s⁻¹ | 942000 M⁻¹ s⁻¹ | ~2 nM |  |
| Anti-PDL1/SIRPα bispecific antibody ES019-020 (bispecific antibody, not shown: small tags and cut ends; a dimerising Fc or GST) light (part 1 of 2): QIVLTQSPAIMSASPGEKVTLTCSASSSVSSSYLYWYQQKPGSSPKLWIYSTSNLASGVPARFSGSGSGTSYSLTISSMEAEDAASYFCHQWSSYPYTFGGGTKLEIK light (part 2 of 2): EVQVVESGGGLVQSGGSLKLSCAGSGFTESAGFMVWHRQVPGKERELVALIATPSGSTNYADSVKGRFTISRDNGKNTVYLQMNSLKPEDTAVYYCNIRGYWGQGTLVTVSS heavy: EVQLQQSGAELVKPGASVKLSCTASGFNIKDYYMHWVKQRTEQGLEWIGRIDPEDGETKYAPKFQGKATITADTSSNTAYLQLSSLTSEDTAVYYCDRGLAYWGQGTLVTVSA |  |  |  | ~0.6 nM | 5.54 nM | 0.00509 s⁻¹ | 918000 M⁻¹ s⁻¹ | ~3 nM |  |
| Anti-PDL1/SIRPα bispecific antibody ES019-024 (bispecific antibody, not shown: a dimerising Fc or GST) light: QIVLTQSPAIMSASPGEKVTLTCSASSSVSSSYLYWYQQKPGSSPKLWIYSTSNLASGVPARFSGSGSGTSYSLTISSMEAEDAASYFCHQWSSYPYTFGGGTKLEIK heavy (part 1 of 2): EVQLQQSGAELVKPGASVKLSCTASGFNIKDYYMHWVKQRTEQGLEWIGRIDPEDGETKYAPKFQGKATITADTSSNTAYLQLSSLTSEDTAVYYCDRGLAYWGQGTLVTVSA heavy (part 2 of 2): EVQVVESGGGLVQSGGSLKLSCAGSGFTESAGFMVWHRQVPGKERELVALIATPSGSTNYADSVKGRFTISRDNGKNTVYLQMNSLKPEDTAVYYCNIRGYWGQGTLVTVSS |  |  |  | ~0.6 nM | 6.56 nM | 0.00603 s⁻¹ | 920000 M⁻¹ s⁻¹ | ~2 nM |  |
| Anti-SIRPα antibody C42 (antibody, human IgG4, V domains shown, Mouse variable regions; also called 042c) VH: QIQLVQSGPELKKPGETVKISCRASGYTFTTYGMSWVKQAPGKGLRWMGWINTYSGVSTCADDFKGRFAFSLETSATTAYLQIHNLTNEDTATYFCARDPHSYGNSPAWFPYWGQGTLVTVSA VL: DIVMTQSQKFMSTTIRDRVSITCKASQNVGISVAWYQQKSGQSPKLLIYSASNRYTGVPDRFTGSGSGTDFTLTISNMQSEDLADYFCQQYSSYPLTFGSGTKLAIK | 8.9% | 93.9% | 29.8% |  |  |  |  |  | EC50 [7]: 1.9 nM; TOP MFI [7]: 73200 MFI; EC50 [8]: 4.21 nM; TOP MFI [8]: 54800 MFI; IC50 (SHP-1 recruitment blocking) [9]: 0.99 nM; TOP blocking (SHP-1 recruitment) [9]: 70%; IC50 [10]: 4.49 nM; TOP blocking [10]: 94.6%; IC50 [11]: 3.6 nM; TOP blocking [11]: 97.1% |
| Anti-SIRPα antibody C73 (antibody, human IgG4, V domains shown, Mouse variable regions; also called 073c; 073C) VH: QIQLVQSGPELKKPGETVKISCKASGYTFTTYGMSWVKQAPGKGLKWMVWINTYSGVPTYADDFKGRFAFSLETSASTSYLQINNLKNEDTATYFCARDPHYYGSSPAWFVYWGQGTLVTVSA VL: DIVMTQSQKFMSTTIGDRVSITCEASQIVGIAVAWYQQKPGQSPKLLIYSASNRYTGVPDRFTGSGSGTDFTLTISNMQSEDLANYFCQQYSAYPFTFGSGTKLEVK | 9.1% | 93.6% | 37.7% |  |  |  |  |  | EC50 [7]: 1.5 nM; TOP MFI [7]: 67800 MFI; EC50 [8]: 2.12 nM; TOP MFI [8]: 47300 MFI; IC50 (SHP-1 recruitment blocking) [9]: 5.66 nM; TOP blocking (SHP-1 recruitment) [9]: 51.2%; IC50 [10]: 4.92 nM; TOP blocking [10]: 82.8%; IC50 [11]: 2.74 nM; TOP blocking [11]: 95.1% |
| Anti-SIRPα antibody C35 (antibody, V domains shown, Tested as purified chimeric antibody; also called 035) VH: QIQLVQSGPELRKPGETVKISCKASGYSFTNYAMNWVKQAPGKVLKWMGFINTYTGEPTYADDFKGRFAFSLETSASTAYLQINNLKNEDTATYFCTRTRGYYDFDGGAFDYWGQGTSLTVSS VL: DIVMTQSQKFMSTSIGDRVSVTCKASQNVGTHLAWYQQKPGQSPKALIFSASYRYIGVPDRFTGSGSGTDFTLTITNVQSEDLAEYFCQQYNTYPLTFGAGTKLELK |  |  |  |  |  |  |  |  | IC50 (read off the curve) [12]: ~2 nM |
